Numbering of substitutions follows the chain as printed. Values joined by “and” are separate entries in the source; they are usually repeats but may differ in a detail not shown here. Identical values can stand only once. Like-named read-outs stand apart in the source and are kept apart here.
Assays:
biotinylated CRH [1] = biological target: T1, biotinylated CRH (human and mouse, UniProt P01143 145-185 (rat entry), not fully specified; biotin; which end is not stated for the result (NT-biotin and CT-biotin forms were used)); experiment: CRH ELISA, compared with PR006669
T1 construct: also called biotin-CRH; CRH (NT biotin)
T1 peptide: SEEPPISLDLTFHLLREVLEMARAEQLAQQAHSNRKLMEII
Method: (§1) Streptavidin (Thermo, Cat: 21125) was diluted in PBS to a concentration of 2 μg/ml. 100 μl of diluted streptavidin was added per well to ELISA microplates, and the plates were incubated overnight at 4° C. […] Subsequently, plates were washed and incubated with HRP-conjugated goat anti-human IgG (H+L) antibody (Jackson, Cat: 109-035-088) at 37° C. for 1 hour. 100 μL of 3,3′,5,5′-tetramethylbenzidine (TMB) substrate (Biopanda, Cat: TMB-S-003) was added, and the plates were incubated at room temperature for 15 minutes. 100 μL of ELISA stopping solution (Solarbio, Cat #: C1058) was added to terminate the reaction, and the optical density at 450 nm (OD450 nm) was determined by an ELISA plate reader (Molecular Devices, Spectra max 384 plus).

biotinylated CRH [2] = biological target: T1, biotinylated CRH; experiment: ELISA, CRH (NT biotin)
biotinylated CRH [3] = biological target: T1, biotinylated CRH; experiment: ELISA, CRH (CT biotin)
biotinylated CRH [4] = biological target: T1, biotinylated CRH; experiment: Octet BLI, biotinylated CRH on SA sensors
[5] = biological target: T2, corticotropin-releasing hormone (CRH) peptide (human and mouse, UniProt P01143 145-185 (rat entry), not fully specified); experiment: cell-based or functional assay
T2 peptide: T1 peptide

biotinylated CRH [6] = biological target: T1, biotinylated CRH; experiment: Octet in-tandem competition on captured CRH; row = 1st mAb; competitor (2nd mAb) PR005660
Method: (§2) SA sensors (Fortebio, Cat #18-5019) were hydrated in running buffer for 10 mins.

biotinylated CRH [7] = biological target: T1, biotinylated CRH; experiment: Octet in-tandem competition on captured CRH; row = 1st mAb; competitor (2nd mAb) PR006669
Method: as §2

biotinylated CRH [8] = biological target: T1, biotinylated CRH; experiment: Octet in-tandem competition on captured CRH; row = 1st mAb; competitor (2nd mAb) PR301777
Method: as §2

biotinylated CRH [9] = biological target: T1, biotinylated CRH; experiment: Octet in-tandem competition on captured CRH; row = 1st mAb; competitor (2nd mAb) PR302334
Method: as §2

biotinylated CRH [10] = biological target: T1, biotinylated CRH; experiment: Octet in-tandem competition on captured CRH; row = 1st mAb; competitor (2nd mAb) PR303394
Method: as §2

biotinylated CRH [11] = biological target: T1, biotinylated CRH; experiment: Octet in-tandem competition on captured CRH; row = 1st mAb; competitor (2nd mAb) PR302309-8
Method: as §2

biotinylated CRH [12] = biological target: T1, biotinylated CRH; experiment: Octet in-tandem competition on captured CRH; row = 1st mAb; competitor (2nd mAb) PR302341-34
Method: as §2

[13] = biological target: T2, corticotropin-releasing hormone (CRH) …; experiment: cell-based or functional assay
biotinylated CRH [14] = biological target: T1, biotinylated CRH; experiment: ELISA, CRH (NT biotin)
Method: as §1

biotinylated CRH [15] = biological target: T1, biotinylated CRH; experiment: ELISA, CRH (CT biotin)
Method: as §1

[16] = biological target: T3, human UCN1 peptide, biotinylated (human, UniProt P55089 83-122, biotin at N- or C-terminus); experiment: ELISA, hUCN1 (NT biotin)
T3 construct: also called hUCN1 (NT Biotin); hUCN1 (CT Biotin)
T3 peptide (looked up): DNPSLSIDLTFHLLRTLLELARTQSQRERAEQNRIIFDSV
Method: as §1

[17] = biological target: T4, N-Terminal CRH peptide (N-terminal region plus central region, CT biotin) (human and mouse, C-terminal K-Biotin); experiment: ELISA, N-Ter-CRH (CT-biotin) on streptavidin
T4 construct: also called N-Ter-CRH
T4 peptide: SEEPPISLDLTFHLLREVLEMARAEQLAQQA
Method: as §1

[18] = biological target: T5, human UCN2 peptide, biotinylated (human, UniProt Q96RP3 72-109, limits assumed, biotin at N- or C-terminus); experiment: ELISA, hUCN2 (NT biotin) and (CT biotin)
T5 construct: also called hUCN2 (NT Biotin); hUCN2 (CT Biotin)
T5 peptide (looked up): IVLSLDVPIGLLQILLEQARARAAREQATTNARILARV
Method: (§3) Streptavidin (Thermo, Cat: 21125) was diluted in PBS with a concentration of 2 μg/mL. 100 μL of diluted streptavidin was added per well to ELISA microplates, and the plates were incubated overnight at 4° C. Plates were blocked with ELISA blocking solution (containing 2% w/v BSA, 0.05% (v/v) Tween-20, pH 7.4 PBS buffer) at 37° C. for 1 hour, and then incubated with either 1 μg/mL hUCN1 (NT Biotin), hUCN1 (CT Biotin), hUCN2 (NT Biotin), hUCN2 (CT Biotin), hUCN3 (NT Biotin), or hUCN3 (CT Biotin) for 1 hour at 37° C. […] Plates were subsequently washed and incubated with HRP-conjugated goat anti-human IgG (H+L) antibody (Jackson, Cat: 109-035-088) at 37° C. for 1 hour. 100 μl of TMB Substrate (Biopanda, Cat: TMB-S-003) was added, and the plates were incubated at room temperature for 15 minutes. 100 μL of ELISA stopping solution (Solarbio, Cat #: C1058) was then added to terminate the reaction, and the OD450 nm was determined by an ELISA plate reader (Molecular Devices, Spectra max 384 plus).

[19] = biological target: T6, human UCN3 peptide, biotinylated (human, UniProt Q969E3 120-157, biotin at N- or C-terminus); experiment: ELISA, hUCN3 (NT biotin) and (CT biotin)
T6 construct: also called hUCN3 (NT Biotin); hUCN3 (CT Biotin)
T6 peptide (looked up): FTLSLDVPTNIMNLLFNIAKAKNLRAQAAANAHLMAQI
Method: as §3

[20] = biological target: T7, CRH (Central Region, NT Biotin) (N-terminal Biotin-K; C-terminal NH2); experiment: ELISA, CRH central region peptide (NT biotin)
T7 construct: also called Central CRH
T7 peptide: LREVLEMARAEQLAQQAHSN
Method: as §1

[21] = biological target: T8, CRH (Central Region, CT Biotin) (C-terminal K-Biotin); experiment: ELISA, CRH central region peptide (CT biotin)
T8 construct: also called Central CRH
T8 peptide: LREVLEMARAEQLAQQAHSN
Method: as §1

[22] = biological target: T9, CRH (C-Terminal Region, NT Biotin) (N-terminal Biotin-K; C-terminal NH2); experiment: ELISA, CRH C-terminal region peptide (NT biotin)
T9 construct: central region plus C-terminal region of CRH; also called C-Terminal CRH; C-Ter-CRH
T9 peptide: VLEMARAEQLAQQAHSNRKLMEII
Method: as §1

[23] = biological target: T2, corticotropin-releasing hormone (CRH) …; experiment: cell-based or functional assay

B1: PR006745 (antibody, human IgG1, kappa, V domains shown)
VH: EVQLVESGGGLVQPGGSLRLSCAASGFTFSDNWMSWVRQAPGKGLEWVANIKQDASENYYVDSVKGRFTISRDNAKNSLYLQMNSLRAEDTAVYYCSRGLALWGWGQGTLVTVSS
VL: DIVMTHSPLSLPVTPGDPASISCRSSQSLLHSTGYNYLDWYLQKPGQSPQLLIYLGSNRASGVPDRFSGSGSGTDFTLKFIRVEAEDVGVYYCMQALQTPYTFGQGTKLEIKR
Biotinylated CRH [1]
  binding result: binds

B2: PR006746 (antibody, human IgG1, kappa, V domains shown)
VH: B1 VH with A55S
VL: B1 VL
Biotinylated CRH [1]
  binding result: binds

B3: PR301306 (antibody, human IgG1, kappa, V domains shown)
VH: EVKLEESGGGLVQPGGSMKLSCVASGFTFSNYWMNWVRQSPEKGLEWVAEIRLKSNNYATLYAESVKGRFTISRDDSKSSVYLQMNNLRAEDTGIYYCTRGTLVYWGQGTLVTVSA
VL: DIVLTQSPASLAVSLGQRATISCRASQSVSTSDYNYMHWYQQKPGQPPKLLIKYASNLESGVPARFSGSGSGTDFTLNIHPVEEEDTATYYCQHSWEIPYTFGGGTKLEIKR
Biotinylated CRH [2]
  EC50 (read off the curve): ~0.1 nM
Biotinylated CRH [3]
  EC50 (read off the curve): ~0.04 nM

B4: PR006143 (antibody, human IgG1, kappa, V domains shown)
VH: EVQLVESGGVLVQPGGSLRLSCAASGFTFSSYWMTWVRQAPGKGLEWVANIKQEGSEKYYVDSVKGRFTISRDNAKNSLFLQMNSLRAEDTAVYYCARTLIFDYWGQGTLVTVSS
VL: DIVMTQSPLSLPVTPGEPASISCRSSQSLLHSTGYHSLEWYLQKPGQSPQLLIYLGSNRASGVPDRFSGSGSGTDFTLKISRVEAEDVGIYYCMQTLQTPITFGQGTRLEIKR
Biotinylated CRH [4]
  binding result: binds

B5: PR006145 (antibody, human IgG1, kappa, V domains shown)
VH: B4 VH
VL: B4 VL with H36S
Biotinylated CRH [4]
  binding result: binds

B6: PR302334 (antibody, human IgG1, kappa, V domains shown)
VH: EVKLVESGGGLVKPGGSLKLSCAASGFTFSTYAMSWVRQTPEKRLEWVASIRSGGTTYYPDSVKGRFTISRDNARNILYLQMSSLRSEDTAIYYCTRGIDWGQGTLVTVSA
VL: NIVMTQTPKFLLVSAGDRITITCKASQSVNNDVAWYQQKPGQSPKLLIYYASNRYTGVPDRFTGSGYGTDFTFTISTVQAEDLAVYFCQQDYSSWTFGGGTNLEIKR
[5]
  hCRHR1-Luc 0.5 nM CRH IC50: 0.26 nM and 0.644 nM
Biotinylated CRH [6]
  % Inhibition: 92%
Biotinylated CRH [7]
  % Inhibition: 93%
Biotinylated CRH [8]
  % Inhibition: 90%
Biotinylated CRH [9]
  % Inhibition: 95%
Biotinylated CRH [10]
  % Inhibition: 89%
Biotinylated CRH [11]
  % Inhibition: 91%
Biotinylated CRH [12]
  % Inhibition: 88%

B7: PR302309-8 (antibody, human IgG1, kappa, V domains shown)
VH: QIQLVQSGSELKKPGASVKVSCKASGYTFTNYGMNWVRQAPGQGLEWMGWINTYTGEPIYTDDFKGRFVFSLDTSVSTAYLQISSLKAEDTAVYYCSRSTMITTGGVFAYWGQGTLVTVSS
VL: DVVMTQSPLSLPVTLGQPASISCRSSQTIVHSDGNTYLEWYQQRPGQSPRLLIYKVSNRFSGVPDRFSGSGSGTDFTLKISRVEAEDLGVYYCFQGSHVPWTFGGGTKVEIKR
[13]
  hCRHR1-Luc 0.5 nM CRH IC50: 1.7 nM
Biotinylated CRH [14]
  EC50 (read off the curve): ~0.03 nM
Biotinylated CRH [15]
  EC50 (read off the curve): ~0.03 nM
[16]
  EC50 (read off the curve): ~0.1 nM
[17]
  EC50: 0.025 nM
[18]
  binding result: no binding (tested: 100 nM)
[19]
  binding result: no binding (tested: 100 nM)
[20]
  binding result: no binding (tested: 100 nM)
[21]
  binding result: no binding (tested: 100 nM)
[22]
  binding result: no binding (tested: 100 nM)
Biotinylated CRH [6]
  % Inhibition: 76%
Biotinylated CRH [7]
  % Inhibition: 76%
Biotinylated CRH [8]
  % Inhibition: 80%
Biotinylated CRH [9]
  % Inhibition: 65%
Biotinylated CRH [10]
  % Inhibition: 77%
Biotinylated CRH [11]
  % Inhibition: 87%
Biotinylated CRH [12]
  % Inhibition: 74%

B8: PR302341-67 (antibody, human IgG1, kappa, V domains shown)
VH: QVQLVQSGAEVKKPGASVKVSCKASGYTFTDYFMKWVRQAPGQGLEWMGVINPNNGDIFYNQKFKGRVTMTVDKSTSTAYMELSSLRSEDTAVYYCARGTDRALFAYWGQGTLVTVSS
VL: B7 VL with S7T, L11S, S26G, T28S, G34A, S48P, S72A, V99I
[23]
  IC50 (read off the curve), CRH-induced hCRHR1 luciferase reporter: ~0.2 nM

— patent publication US20250197490A1 (HBM ALPHA THERAPEUTICS, published 2025)
